Data on 2 substances can be found in patent US20110033929A1.

Assay [1] concerns the target human Langerin (human) (UniProt Q9UJ71). As to the kind of experiment: cell-based or functional assay.
For assay [2] the target is unchanged. As to the kind of experiment: immunogold electron microscopy, 4° C., 5 nm gold goat anti-mouse IgG, Langerhans cells of epidermal cell suspensions.
The target is the same in assay [3]. As to the kind of experiment: immunogold electron microscopy, 4° C., Langerhans cells of epidermal cell suspensions; isotype control for DCGM4.

UniProt Q9UJ71, sequence (Q9UJ71 whole entry V278A): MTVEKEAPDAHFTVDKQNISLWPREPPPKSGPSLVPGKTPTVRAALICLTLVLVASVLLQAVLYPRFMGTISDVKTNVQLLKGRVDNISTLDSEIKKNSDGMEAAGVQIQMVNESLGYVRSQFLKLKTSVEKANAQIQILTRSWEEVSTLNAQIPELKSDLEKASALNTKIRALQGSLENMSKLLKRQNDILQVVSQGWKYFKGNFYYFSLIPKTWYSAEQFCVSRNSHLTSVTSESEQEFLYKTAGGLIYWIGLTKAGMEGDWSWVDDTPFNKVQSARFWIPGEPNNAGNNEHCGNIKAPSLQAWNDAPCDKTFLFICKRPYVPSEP

With monoclonal antibody DCGM4, in the assay with human Langerin (human) [1], the half-life (t1/2) of DCGM4 at the cytomembrane stood at 4.5 min and the internalization (decrease of cell-surface-bound antibody by FACS) was found to be 75%. Also, the internalization rate k with human Langerin (human) [1] (scale: °/min) was determined as 15.3. This substance had a gold granules/100 µm membrane (gold granules/100 µm membrane) in the assay with human Langerin (human) [2] of 162.

With control mouse IgG1 (Sigma) (antibody), the gold granules/100 µm membrane (granules/100 µm) in the assay with human Langerin (human) [3] is 1.3.
